From US8450284B2, “Coiled-coil lipopeptide helical bundles and synthetic virus-like particles” (Universitaet Zuerich, priority 2006, dated 2013)
“And” between values parts separate entries of the source, which are not always exact repeats. Equal values may be shown once. Ends that are not written are not given here.

How the values were obtained:
[1] = Far UV circular dichroism spectroscopy (CONTIN analysis, thermal denaturation); assay type: physicochemical
Experimental: Far ultraviolet circular dichroism (CD) spectra were measured at r.t. using a Jasco J-715 spectropolarimeter and a 0.1 cm path length quartz cell. Peptide 5 solution (50 μM) and lipopeptide 4 solution (35.7 μM) were prepared in TRIS buffer (10 mM TrisHCl, 90 mM NaCl, pH 7.4) and concentrations were determined by phosphate or amino acid analysis, as appropriate. Scan speeds of 10-100 nm/min, 1-2 second response times and a 1 nm spectral bandwidth were employed and spectra were collected at a minimum resolution of 0.5 nm. After subtraction of the blank, the spectral values were reported as mean residue ellipticity [deg. cm^2/dmol] and the lipid moiety was ignored when calculating the mean residue molecular weight.
CD spectra of low concentration samples of lipopeptide 4 (2-40 μM) were measured at 20° C. with a Jasco J-810 spectropolarimeter using a 1 cm path length quartz cell. Lipopeptide solutions were prepared in PBS (10 mM Na2HPO4, 90 mM NaCl, pH 7.4) and concentrations were determined by phosphate analysis. Scan speeds of 10 nm/min, 4 second response time and a 2 nm spectral bandwidth were employed and spectra were collected at a minimum resolution of 0.5 nm. Data were elaborated as described above.

[2] = test system: Rabbits; test: Immunization of rabbits, ELISA cross-reaction with the same antigen attached to a different LBB (Table 2); assay type: in vivo, rabbit; conditions: for Endpoint titers (log10) 3°: after second booster
Experimental: (§1) Rabbits (groups of two) were each immunized with 150 μg of one conjugate, reconstituted and equilibrated for at least 1 h at r.t. in either 400 μl PBS (10 mM sodium phosphate, 154 mM NaCl, pH 7.2), or with Freund's adjuvant (Freund's complete adjuvant (FA) for primary and Freund's incomplete adjuvant (FIA) for booster immunizations). Immunizations were performed on days 0, 28 and 56. Sera were collected on days 14, 38 and 66. The sera were analyzed by enzyme-linked immunosorbent assay (ELISA), to detect antibodies that bind to the conjugates used for immunizations.
The specificity of each hapten specific immune response was also analyzed by ELISA (Table 2). Here the ability of antibodies elicited by each conjugate to cross-react with the same antigen attached to a different LBB was measured.
(§2) ELISA microtiter-plates (Nunc Immunoplates Polysorb F96) were coated overnight with a 5 μg/ml solution of each antigen in PBS. The wells were then washed with PBS containing 0.05% Tween 20 (PBST) and blocked with PBS containing 5% skimmed milk powder for 1 h at r.t. After blocking, the wells were washed three times with PBST and incubated with serial dilutions of rabbit serum in PBS containing 0.05% Tween 20 and 0.5% skimmed milk powder (MPBST) for 2.5 h at r.t., followed by three washes with PBST. The plates were then incubated with alkaline phosphatase-conjugated mouse anti-rabbit IgG antibody (Sigma), diluted 1:20000 in MPBST for 1 h at r.t., washed again three times with PBST and incubated in the dark with a 1 mg/ml solution of p-nitrophenyl phosphate (Sigma) in substrate buffer (50 mM sodium carbonate buffer, 1 mM MgCl2, pH 9.6) at r.t. The absorbance was read after an appropriate time at 405 nm using a Bio-Rad Model 3550 microplate reader.

[3] = test system: Rabbits; test: Immunization of rabbits, ELISA for antibodies binding the conjugate used for immunization (Table 1); assay type: in vivo, rabbit; conditions: 150 μg conjugate, ELISA on the immunogen; for log10 (Endpoint titers) 3°: after second booster (serum day 66), rabbits in groups of two, each group given one conjugate; for log10 (Endpoint titers) 2°: after first booster (serum day 38)
Experimental: as §1, §2

[4] = far UV CD at room temperature, FIG. 6

## peptide 5: same peptide sequence as lipopeptide 4 but lacks the phospholipid and linker (GGAVSKVLHLEGEVNKIKSALLSTNKAVVSLSNGVSVLTSKVLDLKNYIDKQ; derived from RSV F glycoprotein)
[1]; [4]
  aperiodic structure content (CONTIN): 42%
  β-sheet content (CONTIN): 25%
[1]; far UV CD at room temperature, pH 7.4, FIG. 6
  α-helix content (CONTIN): 33%
[1]; peptide concentration 35 μM
  mid point of thermal denaturation transition: ~40 °C

## LBB7-LY-CH: conjugate of lipopeptide 7 with LY-CH-HMB (SGIKKEIEAIKKEQEAIKKKIEAIERMLQLTVWGIKQLQARVLAVERYLGDCG; also: conjugate of lipopeptide 7 with LY-CH-HMB)
[2]; ELISA antigen LBB6-LY-CH, after first booster
  Endpoint titers (log10) 2°: 5.01 and 4.71
[2]; ELISA antigen LBB6-LY-CH
  Endpoint titers (log10) 3°: 5.01
[3]
  log10 (Endpoint titers) 3°: 4.41 and 4.11

## LBB6-LY-CH: conjugate of lipopeptide 6 with LY-CH-HMB (GGAVSKVLHLEGEVNKIKSALLSTNKAVVSLSNGVSVLTSKVLDLKNYIDKQC; also: conjugate of lipopeptide 6 with LY-CH-HMB)
[2]; ELISA antigen LBB7-LY-CH
  Endpoint titers (log10) 3°: 5.41 and 5.71
[3]; two rabbits (a, b)
  log10 (Endpoint titers) 2°: 5.11
[3]; after primary immunization (serum day 14), two rabbits (a, b)
  log10 (Endpoint titers) 1°: 3.90 and 4.20

B1: LBB7-12: conjugate of lipopeptide 7 with peptide 12 (conjugate)
chain: SGIKKEIEAIKKEQEAIKKKIEAIERMLQLTVWGIKQLQARVLAVERYLGDCG
peptide: NCRKSIHIGPGRAFYTTGCG
modifications: cyclised or stapled
[2]; ELISA antigen LBB6-12, after primary immunization
  Endpoint titers (log10) 1°: <1.70
[3]; two rabbits (a, b)
  log10 (Endpoint titers) 2°: 4.41 and 4.11
[3]
  log10 (Endpoint titers) 3°: 4.41 and 4.11

B2: LBB6-12: conjugate of lipopeptide 6 with peptide 12 (conjugate)
chain: GGAVSKVLHLEGEVNKIKSALLSTNKAVVSLSNGVSVLTSKVLDLKNYIDKQC
peptide: NCRKSIHIGPGRAFYTTGCG
modifications: cyclised or stapled
[3]
  log10 (Endpoint titers) 3°: 5.01 and 4.71
